Patent US20260008864A1 (CITY OF HOPE, published 2026)

Columns and labels:
[1] = molecular target: T1, CD3 on cells (PBMC, primary patient samples); test: flow cytometry, PBMC treated 1 h with 10 ug/mL of the binder, dot plot CD38-PE against CD3-V450; the C-IgG panel prints 25%; the filing reads the figure as binding to CD3 and CD38
T1 construct: whole, on cells
Experimental: (§1) The CD3-CD38 compounds were then incubated with PBMCs to assess binding to CD3 and CD38 antigens presented on effector cells.

CD38-Fc [2] = molecular target: T2, CD38-Fc (UniProt P28907 43-300); test: SPR, CD38-Fc immobilised on CM5 chip, 25 C
T2 construct: Immobilised on a CM5 chip at 200 RU; also called CD38 antigen target; not shown: Fc part
Experimental: (§2) CD38-Fc was immobilized on a CM5 sensor chip at 200 response units (RU) using ECD/NHS coupling. […] These bispecific compounds include a protease cleavage site within one of the linker regions. […] All samples were prepared at concentrations of 30 nM, 10 nM, 3 nM or 1 nM in HBS-EP+ runner buffer at 25° C.

[3] = molecular target: T3, CD38 on cells (Nomo-1, SKM-1, MM1S, THP-1, HL60, PBMC, primary patient samples) (UniProt P28907 1-300); test: flow cytometry, PBMC treated 1 h with 10 ug/mL of the binder, dot plot CD38-PE against CD3-V450; the C-IgG panel prints 48%; CD3+CD38+ quadrant of this panel: 0%; the filing reads the figure as binding to CD3 and CD38
T3 construct: whole, on cells
Experimental: as §1

CD3-Fc = molecular target: T4, CD3-Fc; test: SPR, CD3-Fc immobilised on CM5 chip, 25 C
T4 construct: Immobilised on a CM5 chip at 1000 RU; also called CD3 target
Experimental: CD3-Fc was immobilized on a CM5 sensor chip at 1000 response units (RU) using ECD/NHS coupling methods. […] All samples were prepared at concentrations of 30 nM, 10 nM, 3 nM or 1 nM in HBS-EP+ runner buffer at 25° C.

CD38-Fc [4] = molecular target: T2, CD38-Fc; test: SPR, CD38-Fc immobilised on CM5 chip, 25 C; ** = kd outside of detectable limits
Experimental: as §2

Binder | CD3 (% of PBMC in the CD3-V450 positive, CD38-PE negative quadrant) [1] [%] | Kd (CD38-Fc [2]) [nM] | koff (CD38-Fc [2]) [s⁻¹] | kon (CD38-Fc [2]) [M⁻¹ s⁻¹] | CD38+ (% of PBMC in the CD38-PE positive, CD3-V450 negative quadrant) [3] [%] | Kd (CD3-Fc) [nM] | koff (CD3-Fc) [s⁻¹] | kon (CD3-Fc) [M⁻¹ s⁻¹] | koff (CD38-Fc [4]) [s⁻¹]
3-38BN003 (5F21) (bispecific antibody, Single chain with cleavable linker L2 (MMP-9 site); also called 38N003; CD3HC-L1-CD38nanobody (5F21)-L2-CD3LC) EVQLVESGGGLVQPGRSLRLSCAASGFTFDDYTMHWVRQAPGKGLEWVSDISWNSGSIGYADSVKGRFTVSRDNAKNSLYLQMNSLRGEDTAIYYCAKDMSGYGHYGKYGMDVWGQGTTVTVSSASTKGPSVFPLAPSSKSTSGGTAALGCLVKDYFPEPVTVSWNSGALTSGVHTFPAVLQSSGLYSLSSVVTVPSSSLGTQTYICNVNHKPSNTKVDKKVEPKSCAASGGAGSDVQLQESGGGSVQAGGSLTLSCTASGLLFRLASMGWYRQAPGKERELIATITVGGKTNYKDSVQGRFIITRDNTGDNTKSTVTLQMNRLKPEDTAVYYCNTASPAVGADTWGQGTRVTVSSGAVPLSLYGAGGDIQMTQSPILLSASVGDRVTITCRASQSIRSYLNWYQQRTNGSPRLLIYAASSLQSGVPSRFSGSGSGTDFTLTINSLQPDDEADYYCQQTYSNPPITFGAGTRLEIKRTVAAPSVFIFPPSDEQLKSGTASVVCLLNNFYPREAKVQWKVDNALQSGNSQESVTEQDSKDSTYSLSSTLTLSKADYEKHKVYACEVTHQGLSSPVTKSFNRGEC | 12 | 0.478 | 6.84e-05 | 143000 | 15 | 522 | 0.0525 | 101000 | 
3-38BN002 (5F1O) (bispecific antibody, Single chain with cleavable linker L2 (MMP-9 site); also called 38N002; CD3HC-L1-CD38nanobody (5F1O)-L2-CD3LC) EVQLVESGGGLVQPGRSLRLSCAASGFTFDDYTMHWVRQAPGKGLEWVSDISWNSGSIGYADSVKGRFTVSRDNAKNSLYLQMNSLRGEDTAIYYCAKDMSGYGHYGKYGMDVWGQGTTVTVSSASTKGPSVFPLAPSSKSTSGGTAALGCLVKDYFPEPVTVSWNSGALTSGVHTFPAVLQSSGLYSLSSVVTVPSSSLGTQTYICNVNHKPSNTKVDKKVEPKSCAASGGAGSDVQLQESGGGLVQAGHSLRLSCVGSGSRFDNYAMGWFRQAPGKEREFVAAISWSSGTTRYLDTVKGRFTISRDNAKSTVYLQMNSLKPEDTAVYYCAARYQPRYYDSGDMDGYEYDNWGQGTQVTVSSGAVPLSLYGAGGDIQMTQSPILLSASVGDRVTITCRASQSIRSYLNWYQQRTNGSPRLLIYAASSLQSGVPSRFSGSGSGTDFTLTINSLQPDDEADYYCQQTYSNPPITFGAGTRLEIKRTVAAPSVFIFPPSDEQLKSGTASVVCLLNNFYPREAKVQWKVDNALQSGNSQESVTEQDSKDSTYSLSSTLTLSKADYEKHKVYACEVTHQGLSSPVTKSFNRGEC | 12 | 0.772 | 0.000127 | 165000 |  | 530 | 0.0227 | 42900 | 
3-38BN001 (5F1K) (bispecific antibody, Single-chain anti-CD3 Fab heavy chain - linker L1 - anti-CD38 nanobody 5F1K - cleavable linker L2 (MMP-9 site) - anti-CD3 light chain; also called 3-38N001; CD3HC-L1-CD38nanobody (5F1K)-L2-CD3LC) EVQLVESGGGLVQPGRSLRLSCAASGFTFDDYTMHWVRQAPGKGLEWVSDISWNSGSIGYADSVKGRFTVSRDNAKNSLYLQMNSLRGEDTAIYYCAKDMSGYGHYGKYGMDVWGQGTTVTVSSASTKGPSVFPLAPSSKSTSGGTAALGCLVKDYFPEPVTVSWNSGALTSGVHTFPAVLQSSGLYSLSSVVTVPSSSLGTQTYICNVNHKPSNTKVDKKVEPKSCAASGGAGSDVQLQESGGGLVQAGGSLRLSCTGSGRTFRNYPMAWFRQAPGKEREFVAGITWVGASTLYADFAKGRFTISRDNAKNTVYLQMNSLKPEDTAVYSCAAGRGIVAGRIPAEYADWGQGTQVTVSSGAVPLSLYGAGGDIQMTQSPILLSASVGDRVTITCRASQSIRSYLNWYQQRTNGSPRLLIYAASSLQSGVPSRFSGSGSGTDFTLTINSLQPDDEADYYCQQTYSNPPITFGAGTRLEIKRTVAAPSVFIFPPSDEQLKSGTASVVCLLNNFYPREAKVQWKVDNALQSGNSQESVTEQDSKDSTYSLSSTLTLSKADYEKHKVYACEVTHQGLSSPVTKSFNRGEC | 13 | 0.946 | 0.000696 | 735000 | 1 |  |  |  | 
3-38BN004 (5F1K) (bispecific antibody, also called 3-38N004; CD38-CD3 BIONIC) EVQLVESGGGLVQPGRSLRLSCAASGFTFDDYTMHWVRQAPGKGLEWVSDISWNSGSIGYADSVKGRFTVSRDNAKNSLYLQMNSLRGEDTAIYYCAKDMSGYGHYGKYGMDVWGQGTTVTVSSASTKGPSVFPLAPSSKSTSGGTAALGCLVKDYFPEPVTVSWNSGALTSGVHTFPAVLQSSGLYSLSSVVTVPSSSLGTQTYICNVNHKPSNTKVDKKVEPKSCAASGGAGSDVQLQESGGGLVQAGGSLRLSCTGSGRTFRNYPMAWFRQAPGKEREFVAGITWVGASTLYADFAKGRFTISRDNAKNTVYLQMNSLKPEDTAVYSCAAGRGIVAGRIPAEYADWGQGTQVTVSSSSGASASAAGGSDIQMTQSPILLSASVGDRVTITCRASQSIRSYLNWYQQRTNGSPRLLIYAASSLQSGVPSRFSGSGSGTDFTLTINSLQPDDEADYYCQQTYSNPPITFGAGTRLEIKRTVAAPSVFIFPPSDEQLKSGTASVVCLLNNFYPREAKVQWKVDNALQSGNSQESVTEQDSKDSTYSLSSTLTLSKADYEKHKVYACEVTHQGLSSPVTKSFNRGEC | 11 | 0.962 | 0.000711 | 740000 | 1 |  |  |  | 

Next, values leading:

CD3 (% of PBMC in the CD3-V450 positive, CD38-PE negative quadrant) [1] [%] | Kd (CD38-Fc [2]) [nM] | koff (CD38-Fc [2]) [s⁻¹] | kon (CD38-Fc [2]) [M⁻¹ s⁻¹] | CD38+ (% of PBMC in the CD38-PE positive, CD3-V450 negative quadrant) [3] [%] | Kd (CD3-Fc) [nM] | koff (CD3-Fc) [s⁻¹] | kon (CD3-Fc) [M⁻¹ s⁻¹] | koff (CD38-Fc [4]) [s⁻¹] | Binder
12 | 0.473 | 7.33e-05 | 155000 | 11 |  |  |  |  | 3-38BN006 (5F21) (bispecific antibody, Single chain with non-cleavable linker L2; also called 38N006; CD3HC-L1-CD38nanobody (5F21)-L2-CD3LC) EVQLVESGGGLVQPGRSLRLSCAASGFTFDDYTMHWVRQAPGKGLEWVSDISWNSGSIGYADSVKGRFTVSRDNAKNSLYLQMNSLRGEDTAIYYCAKDMSGYGHYGKYGMDVWGQGTTVTVSSASTKGPSVFPLAPSSKSTSGGTAALGCLVKDYFPEPVTVSWNSGALTSGVHTFPAVLQSSGLYSLSSVVTVPSSSLGTQTYICNVNHKPSNTKVDKKVEPKSCAASGGAGSDVQLQESGGGSVQAGGSLTLSCTASGLLFRLASMGWYRQAPGKERELIATITVGGKTNYKDSVQGRFIITRDNTGDNTKSTVTLQMNRLKPEDTAVYYCNTASPAVGADTWGQGTRVTVSSSSGASASAAGGSDIQMTQSPILLSASVGDRVTITCRASQSIRSYLNWYQQRTNGSPRLLIYAASSLQSGVPSRFSGSGSGTDFTLTINSLQPDDEADYYCQQTYSNPPITFGAGTRLEIKRTVAAPSVFIFPPSDEQLKSGTASVVCLLNNFYPREAKVQWKVDNALQSGNSQESVTEQDSKDSTYSLSSTLTLSKADYEKHKVYACEVTHQGLSSPVTKSFNRGEC
11 |  |  | 590000 |  |  |  |  | < 1e-05 | 3-38BN005 (5F1O) (bispecific antibody, Single chain with non-cleavable linker L2; also called CD3HC-L1-CD38nanobody (5F1O)-L2-CD3LC) EVQLVESGGGLVQPGRSLRLSCAASGFTFDDYTMHWVRQAPGKGLEWVSDISWNSGSIGYADSVKGRFTVSRDNAKNSLYLQMNSLRGEDTAIYYCAKDMSGYGHYGKYGMDVWGQGTTVTVSSASTKGPSVFPLAPSSKSTSGGTAALGCLVKDYFPEPVTVSWNSGALTSGVHTFPAVLQSSGLYSLSSVVTVPSSSLGTQTYICNVNHKPSNTKVDKKVEPKSCAASGGAGSDVQLQESGGGLVQAGHSLRLSCVGSGSRFDNYAMGWFRQAPGKEREFVAAISWSSGTTRYLDTVKGRFTISRDNAKSTVYLQMNSLKPEDTAVYYCAARYQPRYYDSGDMDGYEYDNWGQGTQVTVSSSSGASASAAGGSDIQMTQSPILLSASVGDRVTITCRASQSIRSYLNWYQQRTNGSPRLLIYAASSLQSGVPSRFSGSGSGTDFTLTINSLQPDDEADYYCQQTYSNPPITFGAGTRLEIKRTVAAPSVFIFPPSDEQLKSGTASVVCLLNNFYPREAKVQWKVDNALQSGNSQESVTEQDSKDSTYSLSSTLTLSKADYEKHKVYACEVTHQGLSSPVTKSFNRGEC
